In US20020016443A1, “Antiproliferative factor” (priority 1996, published 2002):

Test system: APF activity on primary normal bladder epithelial cells
Assay: Blocking of APF antiproliferative activity by recombinant growth factors (^3H-thymidine incorporation)
Type: cell-based, human
Procedure: ^3H-Thymidine Incorporation. Primary normal adult human bladder epithelial cells (HBE) were grown from biopsies obtained at autopsy from patients who had no history of bladder disorder. HBE cells were plated at a density of 1×10^4 cells/well onto 96 well tissue culture plates and incubated at 37° C. overnight (resulting in approximately 60% confluence the following day). The medium was then changed to MEM containing only 1% glutamine and 1% antibiotic/ antimycotic solution, and the cells were incubated at 37° C. overnight. […] Cells were then trypsinized, and insoluble cell contents harvested and methanol-fixed onto glass fiber filter paper, as previously described^62; the amount of radioactivity incorporated was determined as counts per minute using a Beckman LS 3801 scintillation counter. […]
To determine whether the antiproliferative effect of the APF on bladder epithelial cells might be due to a decrease in HB-EGF production, primary normal bladder epithelial cells were simultaneously incubated with varying levels of recombinant HB-EGF, EGF, or IGF1 and low molecular weight urine fractions from IC patients. […] This effect was evident using a concentration of HB-EGF (10 ng/ml) in the range previously determined for normal controls (2-22 ng/ml, mean 6.33 ng/ml) 12 as well as higher concentrations (30 and 100 ng/ml). […]

B1: heparin-binding epidermal growth factor-like growth factor (protein, UniProt Q99075 63-148, looked up)
Heparin-binding EGF-like …: DLQEADLDLLRVTLSSKPQALATPNKEEHGKRKKKGKGLGKKRDPCLRKYKDFCIHGECKYVKELRAPSCICHPGYHGERCHGLSL
10 ng purified APF, 30 ng/ml of HB-EGF, normal and IC patient cells
  inhibition of antiproliferative activity of HPLC-purified APF: inhibited for 2 of 3 APF specimens
co-incubation with low molecular weight IC urine fractions, HB-EGF 10, 30 and 100 ng/ml, EGF, IGF1 up to about 12 and 25 fold normal levels
  inhibition of IC urine antiproliferative activity by recombinant growth factor: inhibited by HB-EGF in a dose-dependent manner
